# Article doi:10.64898/2025.12.16.694761
# Molecular target: Nitrous oxide reductase NosZ (clade I) of Trinickia sp. Z7 (Trinickia sp. Z7)
# Assay: cryo-EM structure
substance,measurement,value
Nitrous oxide reductase NosZ (clade I) of Trinickia sp. Z7 (enzyme),stoichiometry N,2
